{"source": "patent US20220135656A1", "key": {"[1]": {"target": "wheat proteins (wheat prolamins) (wheat)", "test": "indirect ELISA on coated Wheat, duplicate 1"}, "[2]": {"target": "barley proteins (barley prolamins) (barley)", "test": "indirect ELISA on coated Barley, duplicate 1"}, "[3]": {"target": "oat proteins (oat)", "test": "indirect ELISA on coated Oat, duplicate 1"}, "[4]": {"target": "PWG-gliadin (wheat)", "test": "SPR, Biacore T200; Glutenin amine-coupled to the chip, antibody as analyte 20-320 nM; 1:1 binding fit; Chi2 1.1 RU2, U-value 5"}, "[5]": {"target": "barley proteins (barley prolamins) (barley)", "test": "indirect ELISA on coated Barley, duplicate 2"}, "[6]": {"target": "wheat proteins (wheat prolamins) (wheat)", "test": "indirect ELISA on coated Wheat, duplicate 2"}, "[7]": {"target": "rye proteins (rye prolamins) (rye)", "test": "indirect ELISA on coated Rye, duplicate 2"}, "[8]": {"target": "rye proteins (rye prolamins) (rye)", "test": "indirect ELISA on coated Rye, duplicate 1"}, "[9]": {"target": "33-mer gluten specific peptide (wheat)", "sequence (peptide, as listed by the source)": "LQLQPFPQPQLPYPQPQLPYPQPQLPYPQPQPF", "test": "indirect ELISA on coated 33-Mer, duplicate 2"}, "[10]": {"target": "33-mer gluten specific peptide (wheat)", "test": "indirect ELISA on coated 33-Mer, duplicate 1"}, "[11]": {"target": "oat proteins (oat)", "test": "indirect ELISA on coated Oat, duplicate 2"}}}
{"substance": "R5 monoclonal antibody", "values": [{"measurement": "ELISA absorbance at 0 ng/ml antibody (blank)", "setting": "[1]", "value": 0.039}, {"measurement": "ELISA absorbance at 0.8 ng/ml antibody", "setting": "[1]", "value": 0.133}, {"measurement": "ELISA absorbance at 4 ng/ml antibody", "setting": "[1]", "value": 0.534}, {"measurement": "ELISA absorbance at 20 ng/ml antibody", "setting": "[1]", "value": 1.5}, {"measurement": "ELISA absorbance at 0 ng/ml antibody (blank)", "setting": "[2]", "value": 0.041}, {"measurement": "ELISA absorbance at 0.8 ng/ml antibody", "setting": "[2]", "value": 0.165}, {"measurement": "ELISA absorbance at 4 ng/ml antibody", "setting": "[2]", "value": 0.63}, {"measurement": "ELISA absorbance at 20 ng/ml antibody", "setting": "[2]", "value": 1.62}, {"measurement": "ELISA absorbance at 0 ng/ml antibody (blank)", "setting": "[3]", "value": 0.043}, {"measurement": "ELISA absorbance at 0.8 ng/ml antibody", "setting": "[3]", "value": 0.041}, {"measurement": "ELISA absorbance at 4 ng/ml antibody", "setting": "[3]", "value": 0.042}, {"measurement": "ELISA absorbance at 20 ng/ml antibody", "setting": "[3]", "value": 0.043}, {"measurement": "Kd", "setting": "[4]", "value": 203, "unit": "nM"}, {"measurement": "koff", "setting": "[4]", "value": 0.0539, "unit": "s⁻¹"}, {"measurement": "kon", "setting": "[4]", "value": 266000, "unit": "M⁻¹ s⁻¹"}, {"measurement": "ELISA absorbance at 0 ng/ml antibody (blank)", "setting": "[5]", "value": 0.042}, {"measurement": "ELISA absorbance at 0.8 ng/ml antibody", "setting": "[5]", "value": 0.171}, {"measurement": "ELISA absorbance at 4 ng/ml antibody", "setting": "[5]", "value": 0.659}, {"measurement": "ELISA absorbance at 20 ng/ml antibody", "setting": "[5]", "value": 1.61}, {"measurement": "ELISA absorbance at 0 ng/ml antibody (blank)", "setting": "[6]", "value": 0.043}, {"measurement": "ELISA absorbance at 0.8 ng/ml antibody", "setting": "[6]", "value": 0.133}, {"measurement": "ELISA absorbance at 4 ng/ml antibody", "setting": "[6]", "value": 0.534}, {"measurement": "ELISA absorbance at 20 ng/ml antibody", "setting": "[6]", "value": 1.52}, {"measurement": "ELISA absorbance at 0 ng/ml antibody (blank)", "setting": "[7]", "value": 0.042}, {"measurement": "ELISA absorbance at 0.8 ng/ml antibody", "setting": "[7]", "value": 0.174}, {"measurement": "ELISA absorbance at 4 ng/ml antibody", "setting": "[7]", "value": 0.671}, {"measurement": "ELISA absorbance at 20 ng/ml antibody", "setting": "[7]", "value": 1.61}, {"measurement": "ELISA absorbance at 0 ng/ml antibody (blank)", "setting": "[8]", "value": 0.039}, {"measurement": "ELISA absorbance at 0.8 ng/ml antibody", "setting": "[8]", "value": 0.165}, {"measurement": "ELISA absorbance at 4 ng/ml antibody", "setting": "[8]", "value": 0.651}, {"measurement": "ELISA absorbance at 20 ng/ml antibody", "setting": "[8]", "value": 1.56}, {"measurement": "ELISA absorbance at 0 ng/ml antibody (blank)", "setting": "[9]", "value": 0.04}, {"measurement": "ELISA absorbance at 0.8 ng/ml antibody", "setting": "[9]", "value": 0.04}, {"measurement": "ELISA absorbance at 4 ng/ml antibody", "setting": "[9]", "value": 0.052}, {"measurement": "ELISA absorbance at 20 ng/ml antibody", "setting": "[9]", "value": 0.118}, {"measurement": "ELISA absorbance at 0 ng/ml antibody (blank)", "setting": "[10]", "value": 0.04}, {"measurement": "ELISA absorbance at 0.8 ng/ml antibody", "setting": "[10]", "value": 0.039}, {"measurement": "ELISA absorbance at 4 ng/ml antibody", "setting": "[10]", "value": 0.048}, {"measurement": "ELISA absorbance at 20 ng/ml antibody", "setting": "[10]", "value": 0.067}, {"measurement": "ELISA absorbance at 0 ng/ml antibody (blank)", "setting": "[11]", "value": 0.044}, {"measurement": "ELISA absorbance at 0.8 ng/ml antibody", "setting": "[11]", "value": 0.055}, {"measurement": "ELISA absorbance at 4 ng/ml antibody", "setting": "[11]", "value": 0.043}, {"measurement": "ELISA absorbance at 20 ng/ml antibody", "setting": "[11]", "value": 0.048}]}
